The text below walks through data of paper doi:10.1101/557116 (bioRxiv, 2019).

For one data set, the target named is bacILT7 24-435 (human, UniProt P59901 24-435). The data set is described as follows: SPR.
In the next data set the target is bacILT7 24-223 (human, UniProt P59901 24-223, fluorescent label (Protein Labeling Kit RED-NHS)). Briefly: MST.
The data set “cross-linking” deals with the molecule itself. The data set is described as follows: cross-linking.

Chain of bacILT7 24-223 (P59901 24-223): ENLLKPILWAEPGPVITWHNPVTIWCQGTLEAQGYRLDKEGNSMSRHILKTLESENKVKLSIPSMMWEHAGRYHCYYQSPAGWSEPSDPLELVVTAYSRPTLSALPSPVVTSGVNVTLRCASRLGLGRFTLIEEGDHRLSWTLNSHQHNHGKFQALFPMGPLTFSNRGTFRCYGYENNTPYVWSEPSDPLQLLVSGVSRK
Chain of bacILT7 24-435 (P59901 24-435): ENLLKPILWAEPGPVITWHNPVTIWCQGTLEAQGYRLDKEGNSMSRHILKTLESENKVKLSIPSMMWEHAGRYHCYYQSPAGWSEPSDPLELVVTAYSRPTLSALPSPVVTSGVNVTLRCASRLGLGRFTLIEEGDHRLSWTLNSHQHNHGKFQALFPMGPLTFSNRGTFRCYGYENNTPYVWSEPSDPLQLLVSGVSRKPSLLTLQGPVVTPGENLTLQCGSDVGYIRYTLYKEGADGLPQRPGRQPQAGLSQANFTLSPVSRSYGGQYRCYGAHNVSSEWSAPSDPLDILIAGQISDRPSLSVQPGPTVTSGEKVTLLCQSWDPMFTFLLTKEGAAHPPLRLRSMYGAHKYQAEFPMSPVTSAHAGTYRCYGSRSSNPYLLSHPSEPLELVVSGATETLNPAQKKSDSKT

B1: GST-BST2 (80-147) (domain or fragment, human, UniProt Q10589 80-147, looked up)
chain: GFQDVEAQAATCNHTVMALMASLDAEKAQGQKKVEELEGEITTLNHKLQDASAEVERLRRENQVLSVR
One may read the Kd as the free concentration of one partner at which half of the binding sites on the other are occupied at equilibrium, for simple one-to-one binding. A lower Kd goes with higher affinity. In general, koff refers to a measure of how fast the partners let go of each other. Broadly, the kon is the rate constant with which the complex forms. Lower therefore signals slower complex formation. On to B1, for which, in the data set with bacILT7 24-435, the Kd was 2.62 µM, the koff turned out to be 0.00238 s⁻¹ and the kon is 908 M⁻¹ s⁻¹.

B2: BST2 ectodomain (residues 47 to 159) WT (domain or fragment, human, UniProt Q10589 47-159, looked up)
chain: KANSEACRDGLRAVMECRNVTHLLQQELTEAQKGFQDVEAQAATCNHTVMALMASLDAEKAQGQKKVEELEGEITTLNHKLQDASAEVERLRRENQVLSVRIADKKYYPSSQD
In the data set with bacILT7 24-223, B2 showed a Kd of 2.45 ± 0.3 µM.

B3: BST2 ectodomain (residues 47 to 159) L70D (domain or fragment, human, UniProt Q10589 47-159, looked up)
chain: KANSEACRDGLRAVMECRNVTHLDQQELTEAQKGFQDVEAQAATCNHTVMALMASLDAEKAQGQKKVEELEGEITTLNHKLQDASAEVERLRRENQVLSVRIADKKYYPSSQD
In the data set with bacILT7 24-223, B3 gave a Kd of 5.55 ± 1 µM.

B4: BST2 ectodomain (residues 47 to 159) R136A (domain or fragment, human, UniProt Q10589 47-159, looked up)
chain: KANSEACRDGLRAVMECRNVTHLLQQELTEAQKGFQDVEAQAATCNHTVMALMASLDAEKAQGQKKVEELEGEITTLNHKLQDASAEVEALRRENQVLSVRIADKKYYPSSQD
Usually stoichiometry N stands for a count of units in the complex or per binding partner. On to B4, for which, in “cross-linking”, the “stoichiometry N” value was found to be 2.

B5: BST2 ectodomain (residues 47 to 159) D129A (domain or fragment, human, UniProt Q10589 47-159, looked up)
chain: KANSEACRDGLRAVMECRNVTHLLQQELTEAQKGFQDVEAQAATCNHTVMALMASLDAEKAQGQKKVEELEGEITTLNHKLQAASAEVERLRRENQVLSVRIADKKYYPSSQD
With B5, in the data set “cross-linking”, the “stoichiometry N” value stood at 2.

B6: BST2 ectodomain (residues 47 to 159) L127C (domain or fragment, human, UniProt Q10589 47-159, looked up)
chain: KANSEACRDGLRAVMECRNVTHLLQQELTEAQKGFQDVEAQAATCNHTVMALMASLDAEKAQGQKKVEELEGEITTLNHKCQDASAEVERLRRENQVLSVRIADKKYYPSSQD
In the data set with bacILT7 24-223, B6 came in with a Kd of 6.45 ± 1.2 µM.

B7: BST2 ectodomain (residues 47 to 159) T90P (domain or fragment, human, UniProt Q10589 47-159, looked up)
chain: KANSEACRDGLRAVMECRNVTHLLQQELTEAQKGFQDVEAQAAPCNHTVMALMASLDAEKAQGQKKVEELEGEITTLNHKLQDASAEVERLRRENQVLSVRIADKKYYPSSQD
Take B7: the Kd with bacILT7 24-223 came out at 4.49 ± 0.9 µM.

B8: BST2 ectodomain (residues 47 to 159) Q87H (domain or fragment, human, UniProt Q10589 47-159, looked up)
chain: KANSEACRDGLRAVMECRNVTHLLQQELTEAQKGFQDVEAHAATCNHTVMALMASLDAEKAQGQKKVEELEGEITTLNHKLQDASAEVERLRRENQVLSVRIADKKYYPSSQD
Regarding B8, the Kd with bacILT7 24-223 was 5.06 ± 1.1 µM.
